The source of these data is US20230129258A1, “HETEROTANDEM BICYCLIC PEPTIDE COMPLEXES” (BicycleTx Limited, priority 2019, published 2023).

Starred links: 1 amine or outer side, 2 acyl side, 3 side chain; linkers in the order of their positions; H or OH if unused. Positions of bridges follow the written chain, without caps; N, C: chain ends. Non-standard residues stand in square brackets, D forms with d. Chains are numbered I, II in the order given. No end group written: not given here. *: point of attachment. TATA = O=C(CC[*:1])N1CN(C(=O)CC[*:2])CN(C(=O)CC[*:3])C1; Dip = N[C@H](C(=O)O)C(c1ccccc1)c1ccccc1; Hyp = O=C(O)[C@@H]1C[C@@H](O)CN1; hArg = N=C(N)NCCCC[C@H](N)C(=O)O; tBuAla = CC(C)(C)C[C@H](N)C(=O)O; Cba = N[C@@H](CC1CCC1)C(=O)O; dK(PYA) = not defined here; Nle = CCCC[C@H](N)C(=O)O; Pent4ynoyl = C#CCCC(=O)*

This experiment addresses CD137 on Jurkat reporter cells (Promega kit CS196005) (UniProt Q07011). The experiment is described as follows: cell-based or functional assay.

Sequence of CD137 on Jurkat reporter cells (Promega kit CS196005) (Q07011 24-255 limits assumed): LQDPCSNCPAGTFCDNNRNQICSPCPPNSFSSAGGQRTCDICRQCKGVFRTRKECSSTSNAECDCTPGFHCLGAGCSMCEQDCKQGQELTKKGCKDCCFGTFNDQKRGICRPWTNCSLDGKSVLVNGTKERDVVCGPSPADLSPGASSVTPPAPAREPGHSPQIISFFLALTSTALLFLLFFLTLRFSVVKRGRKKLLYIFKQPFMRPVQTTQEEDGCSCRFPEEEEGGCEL

B1: BCY12973 (peptide)
peptide 1: Ac-A[hArg]DC[Hyp]LVNPLCLHP[dD]W[hArg]CK
peptide 2: Ac-C[tBuAla]PE[dK(PYA)]PYCFADPY[Nle]CA
modifications: linker I:4-I:11-I:18, II:1-II:8-II:15 via TATA; linker I:19-II:5 via N‑(acid-PEG3)‑N‑bis(PEG3-azide); reading uncertain; also: two CD137 bicycles per complex (EphA2:CD137 1:2)
Turning to B1, the EC50 (nM), PC3 co-culture came out at 0.16 nM and the Emax (fold induction over background), PC3 (fold over background) was 48.6.

B2: BCY12976 (peptide)
peptide 1: Ac-A[hArg]DC[Hyp]LVNPLCKHP[dD]W[hArg]C
peptide 2: Ac-C[tBuAla]PE[dK(PYA)]PYCFADPY[Nle]CA
modifications: linker I:4-I:11-I:18, II:1-II:8-II:15 via TATA; linker I:12-II:5 via N‑(acid-PEG3)‑N‑bis(PEG3-azide); reading uncertain; also: two CD137 bicycles per complex (EphA2:CD137 1:2)
In turn, B2 registered an EC50 (nM), PC3 co-culture of 0.18 nM and an Emax (fold induction over background), PC3 (fold over background) of 73.2.

B3: BCY12975 (peptide)
peptide 1: Ac-A[hArg]DC[Hyp]KVNPLCLHP[dD]W[hArg]C
peptide 2: Ac-C[tBuAla]PE[dK(PYA)]PYCFADPY[Nle]CA
modifications: linker I:4-I:11-I:18, II:1-II:8-II:15 via TATA; linker I:6-II:5 via N‑(acid-PEG3)‑N‑bis(PEG3-azide); reading uncertain; also: two CD137 bicycles per complex (EphA2:CD137 1:2)
Turning to B3, the EC50 (nM), PC3 co-culture was 0.16 nM and the Emax (fold induction over background), PC3 (fold over background) was found to be 68.8.

B4: BCY13054 (peptide)
peptide 1: A[hArg]DC[Hyp]LVNPLCL[Dip]P[dD]W[hArg]C
peptide 2: Ac-C[tBuAla]PE[dK](Pent4ynoyl)PYCFADPY[Nle]CA
modifications: linker I:4-I:11-I:18, II:1-II:8-II:15 via TATA; not fully specified (N-terminus, bridges); also: linker joins chain 1 to two chain 2 copies via PYA triazoles
The molecule B4 returned an EC50 (nM), PC3 co-culture of 0.07 nM and an Emax (fold induction over background), PC3 (fold over background) of 36.5.

B5: BCY12979 (peptide)
peptide 1: A[hArg]DC[Hyp]LVNPLCLHP[dD]W[hArg]C
peptide 2: Ac-C[tBuAla]PE[dK(PYA)]PYCFADPY[Nle]CA
modifications: linker I:4-I:11-I:18, II:1-II:8-II:15 via TATA; not fully specified (bridges); reading uncertain; also: two CD137 bicycles per complex (EphA2:CD137 1:2)
As to B5, the EC50 (nM), PC3 co-culture came out at 0.08 nM and the Emax (fold induction over background), PC3 (fold over background) was 71.6.

B6: BCY14335 (peptide)
peptide 1: {Palmitoyl‑Glu‑LysN3-Pent4ynoyl}-A[hArg]DC[Hyp]LVNPLCLKP[dD]W[hArg]C
peptide 2: Ac-C[tBuAla]PE[dK](Pent4ynoyl)PYCFADPY[Nle]CA
modifications: linker I:4-I:11-I:18, II:1-II:8-II:15 via TATA (inferred); not fully specified; also: 1:2 complex: chain 1 Lys ('Lys 8') joined to dLys(PYA)5 of two chain 2 copies via N-(acid-PEG3)-N-bis(PEG3-azide) linker
As for B6, the Fold Improvement over BCY9173, EC50, PC3 was 7.14 fold and the Fold Improvement over Emax (BCY9173), PC3 worked out at 0.94 fold.

B7: BCY13050 (peptide)
peptide 1: A[hArg]DC[Hyp][Cba]VNPLCLHP[dD]W[hArg]C
peptide 2: Ac-C[tBuAla]PE[dK](Pent4ynoyl)PYCFADPY[Nle]CA
modifications: linker I:4-I:11-I:18, II:1-II:8-II:15 via TATA; not fully specified (N-terminus, bridges); also: linker joins chain 1 to two chain 2 copies via PYA triazoles
Take B7: the EC50 (nM), PC3 co-culture came out at 0.09 nM and the Emax (fold induction over background), PC3 (fold over background) amounted to 42.5.

B8: BCY13047 (peptide)
peptide 1: A[hArg]DC[Hyp]LVNPLCL[Dip]P[dD]WTC
peptide 2: Ac-C[tBuAla]PE[dK(PYA)]PYCFADPY[Nle]CA
modifications: linker I:4-I:11-I:18, II:1-II:8-II:15 via TATA; not fully specified (N-terminus, bridges); reading uncertain; also: two CD137 bicycles per complex (EphA2:CD137 1:2)
In turn, B8 showed an EC50 (nM), PC3 co-culture of 0.07 nM and an Emax (fold induction over background), PC3 (fold over background) of 46.4.

B9: BCY14334 (peptide)
peptide 1: A[hArg]DC[Hyp]LVNPLCLKP[dD]W[hArg]C
peptide 2: Ac-C[tBuAla]PE[dK](Pent4ynoyl)PYCFADPY[Nle]CA
modifications: linker I:4-I:11-I:18 via TATA; linker II:1-II:8-II:15 via TATA (inferred); not fully specified (some residues); also: N-(acid-PEG3)-N-bis(PEG3-azide) linker at chain 1 N-terminus, joined to dLys(PYA)4 of two BCY8928 chains (1:2 complex)
The molecule B9 returned a Fold Improvement over BCY9173, EC50, PC3 of 7.21 fold and a Fold Improvement over Emax (BCY9173), PC3 of 1.62 fold.

B10: BCY13051 (peptide)
peptide 1: A[hArg]DC[Hyp][Cba]VNPLCLEP[dD]WTC
peptide 2: Ac-C[tBuAla]PE[dK](Pent4ynoyl)PYCFADPY[Nle]CA
modifications: linker I:4-I:11-I:18, II:1-II:8-II:15 via TATA; not fully specified (N-terminus, bridges); also: linker joins chain 1 to two chain 2 copies via PYA triazoles
B10 gave an EC50 (nM), PC3 co-culture of 0.21 nM and an Emax (fold induction over background), PC3 (fold over background) of 37.

B11: BCY12977 (peptide)
peptide 1: A[hArg]DC[Hyp]LVNPLCLHP[dE]W[hArg]C
peptide 2: Ac-C[tBuAla]PE[dK(PYA)]PYCFADPY[Nle]CA
modifications: linker I:4-I:11-I:18, II:1-II:8-II:15 via TATA; linker II:N-II:5 via N‑(acid-PEG3)‑N‑bis(PEG3-azide); reading uncertain; also: two CD137 bicycles per complex (EphA2:CD137 1:2)
For the molecule B11, the EC50 (nM), PC3 co-culture is 0.08 nM and the Emax (fold induction over background), PC3 (fold over background) came out at 67.2.

B12: BCY13052 (peptide)
peptide 1: [dA][hArg]DC[Hyp][Cba]VNPLCLEP[dD]WTC[dA]
peptide 2: Ac-C[tBuAla]PE[dK](Pent4ynoyl)PYCFADPY[Nle]CA
modifications: linker I:4-I:11-I:18, II:1-II:8-II:15 via TATA (inferred); not fully specified (N-terminus); also: chain 2: linker at dLys(PYA)4 (place not given here by letters), linker N-(acid-PEG3)-N-bis(PEG3-azide) joins N-terminus of chain 1 to dLys(PYA) of chain 2
Molecule B12 returned an EC50 (nM), PC3 co-culture of 0.21 nM and an Emax (fold induction over background), PC3 (fold over background) of 32.9.
